This is an account of results in patent US20210324099A1 (Chugai, published 2021).

The target of assay [1] is T1, hFcgRIIb (human, UniProt P31994 43-217).
T1 construct: extracellular domain; also called human FcγRIIb
T1 sequence (looked up): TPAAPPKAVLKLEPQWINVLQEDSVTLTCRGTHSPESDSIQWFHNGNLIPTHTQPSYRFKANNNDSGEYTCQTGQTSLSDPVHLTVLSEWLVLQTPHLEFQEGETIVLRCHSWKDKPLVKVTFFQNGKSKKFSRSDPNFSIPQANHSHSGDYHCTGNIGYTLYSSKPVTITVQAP
Description: SPR 25C; relative to A375-G1T3/B167-Lamlib.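 Also: SPR with antibody captured on an anti-human Fab-lambda chip, human FcγR analyte at 8 nM for FcγRIa or 1000 nM for the others, pH 7.4, FcγR RU per captured antibody unit.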

In assay [2] the target is T2, hFcgRIIaR (human, UniProt P12318 34-217).
T2 construct: extracellular domain; also called human FcγRIIa type R (R131)
T2 sequence (looked up): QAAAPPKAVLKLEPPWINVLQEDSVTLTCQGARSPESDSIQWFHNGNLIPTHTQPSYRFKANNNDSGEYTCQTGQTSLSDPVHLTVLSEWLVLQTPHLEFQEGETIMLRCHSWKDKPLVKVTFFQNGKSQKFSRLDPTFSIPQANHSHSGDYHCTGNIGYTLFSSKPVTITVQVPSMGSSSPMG
Description: SPR 25C; relative to A375-G1T3/B167-Lamlib.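 Also: SPR with antibody captured on an anti-human Fab-lambda chip, human FcγR analyte at 8 nM for FcγRIa or 1000 nM for the others, pH 7.4, FcγR RU per captured antibody unit.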

Assay [3] concerns the target T3, hFcgRIa (human, UniProt P12314 16-292).
T3 construct: extracellular domain; also called human FcγRIa; FcγRI
Description: SPR 25C; relative to A375-G1T3/B167-Lamlib.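 Also: SPR with antibody captured on an anti-human Fab-lambda chip, human FcγR analyte at 8 nM for FcγRIa or 1000 nM for the others, pH 7.4, FcγR RU per captured antibody unit.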

Assay [4] deals with T4, hFcgRIIaH (human, UniProt P12318 34-217).
T4 construct: extracellular domain; also called human FcγRIIa type H (H131)
T4 sequence (looked up): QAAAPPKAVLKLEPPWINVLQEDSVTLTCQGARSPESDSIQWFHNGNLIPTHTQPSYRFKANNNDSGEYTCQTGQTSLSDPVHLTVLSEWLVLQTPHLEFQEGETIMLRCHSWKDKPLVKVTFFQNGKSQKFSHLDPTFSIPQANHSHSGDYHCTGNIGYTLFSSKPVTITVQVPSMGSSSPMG
Put plainly: SPR 25C; relative to A375-G1T3/B167-Lamlib.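 Also: SPR with antibody captured on an anti-human Fab-lambda chip, human FcγR analyte at 8 nM for FcγRIa or 1000 nM for the others, pH 7.4, FcγR RU per captured antibody unit.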

Assay [5] deals with T5, hFcgRIIIaV (human, UniProt P08637 17-208).
T5 construct: extracellular domain; also called human FcγRIIIa allotype V158
T5 sequence (P08637 17-208 F176V): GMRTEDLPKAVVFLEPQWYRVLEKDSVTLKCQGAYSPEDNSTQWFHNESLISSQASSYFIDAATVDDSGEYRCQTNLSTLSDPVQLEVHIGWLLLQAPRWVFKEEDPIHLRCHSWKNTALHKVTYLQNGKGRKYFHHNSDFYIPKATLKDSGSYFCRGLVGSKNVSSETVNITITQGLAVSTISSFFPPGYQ
Description: SPR 25C; relative to A375-G1T3/B167-Lamlib.

Assay [6] has as its target T6, hFcgRIIIaF (human, UniProt P08637 17-208).
T6 construct: extracellular domain; also called human FcγRIIIa allotype F158
Description: SPR 25C; relative to A375-G1T3/B167-Lamlib.

Assay [7] addresses human FcRn (human, UniProt P55899 24-290; P61769 21-119, limits assumed). Put plainly: SPR 25C pH 6.0, steady state.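 Also: antibody captured on chip via anti-human Fab-lambda ligand, human FcRn injected as analyte in 50 mM phosphate buffer with 150 mM NaCl and P20.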
Description: Biacore T200 (GE Healthcare) was used to assess the binding activity to human FcRn. Measurement was performed at 25° C. using 50 mM phosphate, 150 mM NaCl, 0.05 w/v %-P20, pH 6.0 as buffer. […] About 400 RU of antibody was captured using a sensor chip immobilized with CaptureSelect™ Human Fab-lambda Kinetics Biotin Conjugate (Thermo Fisher Scientific) as a molecule for ligand capturing, followed by the binding of human FcRn diluted in measuring buffer. The activity of the respective antibodies to bind FcRn was assessed by calculating KD (mol/L) by the steady-state model using Biacore T200 Evaluation Software 2.0.
Assay [8] deals with T1, hFcgRIIb. Description: SPR 25C.
In assay [9] the target is T2, hFcgRIIaR. Description: SPR 25C.
For assay [10], the target named is T3, hFcgRIa. Put plainly: SPR 25C.
The target in assay [11] is T4, hFcgRIIaH. Description: SPR 25C.
Assay [12] concerns the target T5, hFcgRIIIaV. Put plainly: SPR 25C.
Assay [13] has as its target T6, hFcgRIIIaF. Description: SPR 25C.
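For binding per 1RU of antibody in this document: biacore SPR with antibody captured on an anti-human Fab lambda chip, human FcγR injected at 1000 nM (FcγRIa at 8 nM) in pH 7.4 phosphate buffer.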

human FcRn, sequence (P55899 24-290 limits assumed, chain 1 of 2): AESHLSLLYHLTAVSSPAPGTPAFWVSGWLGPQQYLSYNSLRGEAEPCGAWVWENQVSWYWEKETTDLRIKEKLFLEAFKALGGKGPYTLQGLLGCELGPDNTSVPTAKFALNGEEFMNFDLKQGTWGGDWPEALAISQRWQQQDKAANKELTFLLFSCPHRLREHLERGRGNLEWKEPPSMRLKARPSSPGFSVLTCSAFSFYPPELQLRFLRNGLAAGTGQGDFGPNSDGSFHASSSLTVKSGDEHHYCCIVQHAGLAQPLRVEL
human FcRn, sequence (P61769 21-119 limits assumed, chain 2 of 2): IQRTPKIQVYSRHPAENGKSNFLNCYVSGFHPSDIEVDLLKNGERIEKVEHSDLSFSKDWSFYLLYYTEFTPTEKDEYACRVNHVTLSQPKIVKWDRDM
T3 sequence (P12314 16-292): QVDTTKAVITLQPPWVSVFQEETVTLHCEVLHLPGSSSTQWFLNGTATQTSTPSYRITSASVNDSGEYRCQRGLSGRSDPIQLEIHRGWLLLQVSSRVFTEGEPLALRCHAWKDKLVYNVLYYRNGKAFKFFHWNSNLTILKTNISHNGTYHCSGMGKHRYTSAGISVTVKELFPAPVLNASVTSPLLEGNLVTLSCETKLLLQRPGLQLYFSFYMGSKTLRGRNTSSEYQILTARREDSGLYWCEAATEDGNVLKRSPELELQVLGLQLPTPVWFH
T6 sequence (P08637 17-208): as the sequence (P08637 17-208 F176V) above, with V160F counted along it

B1: A375-SCF025a/B167-Lamlib (antibody, human IgG1, lambda)
heavy: EVQLVESGGGLVKPGGSLRLSCAASGFTFSTFTMNWVRQAPGKGLEWVSSISSKSTYIEYADSFKVRFTISRDNAKNSLYLQMNSLRAEDTAVYYCARYGAKNFLNWVFDYWGQGTLVTVSSASTKGPSVFPLAPSSKSTSGGTAALGCLVKDYFPEPVTVSWNSGALTSGVHTFPAVLQSSGLYSLSSVVTVPSSSLGTQTYICNVNHKPSNTKVDKRVEPKSCDKTHTCPPCPAPELWNGPSVFLFPPKPKDTLMISRTPEVTCVVVDVSDEDPEVKFNWYVDGVEVHNAKTKPREELYNSTYRVVSVLTVLHQDWLNGKEYKCKVSNTALPKPIEKTISKAKGQRREPQVYTLPPSREEMTKNQVSLTCLVKGFYPSDIAVEWESNGQPENNYKTTPPVLDSDGSFFLYSKLTVKKSRWQQGNVFSCSVMHEALHNHYTQKSLSLSP
light: QSALTQPPSASGSPGQTVTISCTGTRYDVGYYEYVSWYQQHPGKAPKLMIYETSKRLSGVPDRFSGSKSGNTASLTVSGLQAEDEADYYCSSYRYEHQVSFGGGTKLTVLGQPKAAPSVTLFPPSSEELQANKATLVCLISDFYPGAVTVAWKADSSPVKAGVETTTPSKQSNNKYAASSYLSLTPEQWKSHRSYSCQVTHEGSTVEKTVAPTECS
For orientation: Kd means the constant that tells how readily two partners part at equilibrium. With B1, the relative binding amount in assay [1] came to 4.67; in [2] it was 1.12; in [3], 0.03; in assay [4] it was 0.91; in assay [5], 0.02; in assay [6] it was 0.04. Also, in assay [7], the affinity, expressed as Kd, was 1.13 µM. For the same molecule, the “binding per 1RU of antibody” value in assay [8] came to 0.0511 RU; in assay [9] it was 0.0518 RU; in assay [10], 0.0021 RU; in assay [11] it was 0.0514 RU; in assay [12], 0.0016 RU; in [13], 0.0009 RU.

B2: A375-SCF030/B167-Lamlib (antibody, human IgG1, lambda)
heavy: EVQLVESGGGLVKPGGSLRLSCAASGFTFSTFTMNWVRQAPGKGLEWVSSISSKSTYIEYADSFKVRFTISRDNAKNSLYLQMNSLRAEDTAVYYCARYGAKNFLNWVFDYWGQGTLVTVSSASTKGPSVFPLAPSSKSTSGGTAALGCLVKDYFPEPVTVSWNSGALTSGVHTFPAVLQSSGLYSLSSVVTVPSSSLGTQTYICNVNHKPSNTKVDKKVEPKSCDKTHTCPPCPAPELWNGPSVFLFPPKPKDTLMISRTPEVTCVVVDVSDEDPEVKFNWYVDGVEVHNAKTKPREELYNSTYRVVSVLTVLHRDWLNGKEYKCKVSNTALPKPIEKTISKAKGQRREPQVYTLPPSREEMTKNQVSLTCLVKGFYPSDIAVEWESNGQPENNYKTTPPVLDSDGSFFLYSKLTVDKSRWQQGNVFSCSVMHEALHNHYTQKSLSLSP
light: QSALTQPPSASGSPGQTVTISCTGTRYDVGYYEYVSWYQQHPGKAPKLMIYETSKRLSGVPDRFSGSKSGNTASLTVSGLQAEDEADYYCSSYRYEHQVSFGGGTKLTVLGQPKAAPSVTLFPPSSEELQANKATLVCLISDFYPGAVTVAWKADSSPVKAGVETTTPSKQSNNKYAASSYLSLTPEQWKSHRSYSCQVTHEGSTVEKTVAPTECS
Consider B2, for which the relative binding amount in assay [1] turned out to be 4.85; in assay [2] it was 1.15; in [3] it was 0.02; in assay [4], 0.94; in assay [5], 0.03; in assay [6], 0.08. The Kd in [7] was found to be 0.863 µM. Moreover, the “binding per 1RU of antibody” value in assay [8] worked out at 0.0532 RU; in assay [9], 0.0532 RU; in assay [10], 0.002 RU; in assay [11], 0.0533 RU; in [12] it was 0.002 RU; in assay [13], 0.0017 RU.

B3: A375-SCF027/B167-Lamlib (antibody, human IgG1, lambda)
heavy: EVQLVESGGGLVKPGGSLRLSCAASGFTFSTFTMNWVRQAPGKGLEWVSSISSKSTYIEYADSFKVRFTISRDNAKNSLYLQMNSLRAEDTAVYYCARYGAKNFLNWVFDYWGQGTLVTVSSASTKGPSVFPLAPSSKSTSGGTAALGCLVKDYFPEPVTVSWNSGALTSGVHTFPAVLQSSGLYSLSSVVTVPSSSLGTQTYICNVNHKPSNTKVDKKVEPKSCDKTHTCPPCPAPEYLGGDSVFLFPPKPKDVLMISRTPEVTCVVIDVSHEDPEVKFNWYVDGVEVHNAKTKPREEQYNSTYRVVSVLPVLHQDWLNGKEYKCKVSNKALPKPIEKTISKAKGQRREPQVYTLPPSREEMTKNQVSLTCLVKGFYPSDIAVEWESNGQPENNYKTTPPVLDSDGSFFLYSKLTVKKSRWQQGNVFSCSVMHEALHNHYTQKSLSLSP
light: QSALTQPPSASGSPGQTVTISCTGTRYDVGYYEYVSWYQQHPGKAPKLMIYETSKRLSGVPDRFSGSKSGNTASLTVSGLQAEDEADYYCSSYRYEHQVSFGGGTKLTVLGQPKAAPSVTLFPPSSEELQANKATLVCLISDFYPGAVTVAWKADSSPVKAGVETTTPSKQSNNKYAASSYLSLTPEQWKSHRSYSCQVTHEGSTVEKTVAPTECS
notes: also called A375-SCF027/B167-LamLab
As for B3, the relative binding amount in assay [1] was 6.99; in [2], 0.12; in assay [3] it was 0.05; in assay [4] it was 0.06; in assay [5], -0.01; in assay [6], -0.02. The molecule further came in with a dissociation constant (Kd) in assay [7] of 1.33 µM. The “binding per 1RU of antibody” value is 0.0766 RU in [8]; 0.0058 RU in assay [9]; 0.0044 RU in assay [10]; 0.0031 RU in assay [11]; -0.0006 RU in assay [12]; -0.0005 RU in assay [13].

B4: A375-SCF028/B167-Lamlib (antibody, human IgG1, lambda)
heavy: EVQLVESGGGLVKPGGSLRLSCAASGFTFSTFTMNWVRQAPGKGLEWVSSISSKSTYIEYADSFKVRFTISRDNAKNSLYLQMNSLRAEDTAVYYCARYGAKNFLNWVFDYWGQGTLVTVSSASTKGPSVFPLAPSSKSTSGGTAALGCLVKDYFPEPVTVSWNSGALTSGVHTFPAVLQSSGLYSLSSVVTVPSSSLGTQTYICNVNHKPSNTKVDKKVEPKSCDKTHTCPPCPAPEYLGDDSVFLFPPKPKDVLMISRTPEVTCVVVDVSHEDPEVKFNWYVDGVEVHNAKTKPREEQYNSTYRVVSVLPVLHQDWLNGKEYKCKVSNKALPKPIEKTISKAKGQRREPQVYTLPPSREEMTKNQVSLTCLVKGFYPSDIAVEWESNGQPENNYKTTPPVLDSDGSFFLYSKLTVKKSRWQQGNVFSCSVMHEALHNHYTQKSLSLSP
light: QSALTQPPSASGSPGQTVTISCTGTRYDVGYYEYVSWYQQHPGKAPKLMIYETSKRLSGVPDRFSGSKSGNTASLTVSGLQAEDEADYYCSSYRYEHQVSFGGGTKLTVLGQPKAAPSVTLFPPSSEELQANKATLVCLISDFYPGAVTVAWKADSSPVKAGVETTTPSKQSNNKYAASSYLSLTPEQWKSHRSYSCQVTHEGSTVEKTVAPTECS
Turning to B4, the relative binding amount in assay [1] was 9.08; in [2], 0.64; in assay [3], 0.03; in assay [4], 0.18; in [5] it was -0.01; in assay [6], -0.04. The molecule also returned an equilibrium dissociation constant (Kd) in assay [7] of 1.27 µM. For the same molecule, the “binding per 1RU of antibody” value in assay [8] is 0.0995 RU; in assay [9], 0.0299 RU; in assay [10] it was 0.0027 RU; in assay [11], 0.0101 RU; in assay [12] it was -0.001 RU; in assay [13], -0.0009 RU.
